The experiment concerns the target FLAG tagged TSC2 (UniProt P49815). In words: single molecule pulldown.
Chain of UniProt P49815 (P49815 whole entry): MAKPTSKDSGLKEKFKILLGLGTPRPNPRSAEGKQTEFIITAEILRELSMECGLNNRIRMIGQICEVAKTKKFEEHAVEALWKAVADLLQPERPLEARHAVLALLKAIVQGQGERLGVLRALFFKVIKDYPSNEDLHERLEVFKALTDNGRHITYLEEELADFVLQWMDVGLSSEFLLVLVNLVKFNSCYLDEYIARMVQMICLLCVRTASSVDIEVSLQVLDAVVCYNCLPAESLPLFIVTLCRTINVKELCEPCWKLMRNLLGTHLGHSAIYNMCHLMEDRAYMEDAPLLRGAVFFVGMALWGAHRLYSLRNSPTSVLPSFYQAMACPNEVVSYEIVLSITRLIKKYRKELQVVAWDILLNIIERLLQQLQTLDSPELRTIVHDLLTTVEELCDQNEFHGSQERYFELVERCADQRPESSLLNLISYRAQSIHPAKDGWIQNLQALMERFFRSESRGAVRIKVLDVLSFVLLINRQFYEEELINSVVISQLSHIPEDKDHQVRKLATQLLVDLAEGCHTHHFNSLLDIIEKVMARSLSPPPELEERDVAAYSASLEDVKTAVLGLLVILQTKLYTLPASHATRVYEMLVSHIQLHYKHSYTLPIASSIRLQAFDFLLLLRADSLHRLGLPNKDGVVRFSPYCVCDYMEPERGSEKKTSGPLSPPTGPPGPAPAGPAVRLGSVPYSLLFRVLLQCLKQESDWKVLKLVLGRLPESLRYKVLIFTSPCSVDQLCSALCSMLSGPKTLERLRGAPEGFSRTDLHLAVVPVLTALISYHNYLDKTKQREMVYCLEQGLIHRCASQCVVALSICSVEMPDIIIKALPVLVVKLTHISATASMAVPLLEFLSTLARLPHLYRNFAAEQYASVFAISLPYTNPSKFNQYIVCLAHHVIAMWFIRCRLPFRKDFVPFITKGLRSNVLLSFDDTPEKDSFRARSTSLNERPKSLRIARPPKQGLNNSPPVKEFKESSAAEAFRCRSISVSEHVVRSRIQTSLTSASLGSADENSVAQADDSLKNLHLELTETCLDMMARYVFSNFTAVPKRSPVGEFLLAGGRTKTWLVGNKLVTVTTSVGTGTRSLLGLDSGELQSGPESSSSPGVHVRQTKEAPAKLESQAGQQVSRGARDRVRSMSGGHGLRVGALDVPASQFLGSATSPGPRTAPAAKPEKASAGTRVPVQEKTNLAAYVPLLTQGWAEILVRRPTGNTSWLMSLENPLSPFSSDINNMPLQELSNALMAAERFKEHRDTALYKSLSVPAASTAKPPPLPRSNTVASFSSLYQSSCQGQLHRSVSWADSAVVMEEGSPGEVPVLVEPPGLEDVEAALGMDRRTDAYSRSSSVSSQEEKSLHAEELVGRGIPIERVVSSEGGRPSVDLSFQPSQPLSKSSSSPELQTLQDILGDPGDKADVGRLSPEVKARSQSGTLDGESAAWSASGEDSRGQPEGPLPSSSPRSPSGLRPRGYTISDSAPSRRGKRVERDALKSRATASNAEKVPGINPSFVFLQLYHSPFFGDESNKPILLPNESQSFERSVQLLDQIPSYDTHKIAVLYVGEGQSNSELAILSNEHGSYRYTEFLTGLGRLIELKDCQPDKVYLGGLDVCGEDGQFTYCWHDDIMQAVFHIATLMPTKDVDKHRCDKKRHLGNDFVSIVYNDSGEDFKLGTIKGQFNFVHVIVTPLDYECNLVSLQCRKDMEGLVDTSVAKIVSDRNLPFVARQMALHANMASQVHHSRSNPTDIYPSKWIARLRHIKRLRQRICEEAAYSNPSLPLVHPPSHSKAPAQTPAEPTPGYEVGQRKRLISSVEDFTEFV

What is called IC50 is the concentration needed to halve the response being measured. “recombinant α-syn PFF (from UniProt P37840 1-140) (natural protein)”: the IC50 worked out at 0.5 nM.

The values above are taken from doi:10.1101/2022.10.03.510455.
